Experimental data from patent publication US20150239968A1.

Tests used:
[1] = biological target: recombinant mature human GDF-15 protein (as expressed in Baculovirus-transfected insect cells) (human) (UniProt Q99988); experiment: SPR (Biorad ProteOn XPR36, GLC chip), GDF-15 from insect cells immobilized, antibody as analyte, 1:1 Langmuir, 25° C.
[2] = biological target: recombinant mature human GDF-15 protein derived from expression in E. coli (human) (UniProt Q99988); experiment: SPR (Biorad ProteOn XPR36, GLC chip), GDF-15 from E. coli immobilized, antibody as analyte
[3] = biological target: GDF-15 produced by the prostate cancer cell line LnCap (UniProt Q99988); experiment: cell-based or functional assay
[4] = biological target: recombinant mature human GDF-15 protein (as expressed in Baculovirus-transfected insect cells) (human) (UniProt Q99988); experiment: SPR (Biorad ProteOn XPR36, GLC chip), KD=koff/kon, GDF-15 from insect cells immobilized

monoclonal anti-human GDF-15 mAb-B1-23 (antibody)
koff [1]: 0.00043 s⁻¹ | kon [1]: 540000 M⁻¹ s⁻¹ | deviation of rate constants against GDF-15 derived from insect cells [2]: 45% | fold difference of affinity values against GDF-15 derived from insect cells [2]: < 2 fold | proliferation of LnCap cells (Alamar Blue assay) after 72 hrs [3]: 30% | Kd [4]: 0.79 nM
